For the test, the target named is SARS-CoV-2 spike receptor-binding domain (amino acids 333–529), bacteria-expressed and refolded (SARS-CoV-2, parental (WT) RBD, UniProt P0DTC2). The test can be described thus: SPR. Particulars: both partners purified.

B1: sybody Sb68 (VHH)
VHH: QVQLVESGGGSVQAGGSLRLSCAASGSISSITYLGWFRQAPGKEREGVAALITVNGHTYYADSVKGRFTVSLDNAKNTVYLQMNSLKPEDTALYYCAAAAWGYAWPLHQDDYWYWGQGTQVTVSA
For B1, the Kd lay within 6.8 to 62.7 nM.

For the origin of these results see PMC8444450 (The Journal of Biological Chemistry, 2021).
